Results reported in the RNAGym collection of RNA variant scans (doi:10.1093/nar/gkz1192).

B1: CPEB3 Ribozyme (parent)
chain: UAACAGGGGGCCACAGCAGAAGCGUUCACGUCGCAGCCCCUGUCAGAUUCUGGUGAAUCUGCGAAUUCUGCUGUAUAUCUC

Variants of: B1
Test: self-cleavage, relative activity (ratio to wild type); higher = more cleavage; in vitro, sequencing
Method in brief: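 CPEB3 self-cleaving ribozyme mutant libraries were made by rounds of error-prone PCR, barcoded, and transcribed in vitro with T7 RNA polymerase for 5 hours at 37°C. Cleavage occurred during transcription and a 15 min DNase I step before EDTA stop. RNAs were reverse transcribed with template switching and Illumina-sequenced, with DNA sequencing mapping barcodes to variants. Relative activity is the variant's cleaved/total read fraction divided by wild type's (minimum 5 reads), averaged across three batches.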

Variant | self-cleavage
UAACAGGGGGCCACAGCAGAAGCGUUCACGUCGCAGCCCCUGUCAGAUUCUGGUGAAUCUGCAUAUUCUGCUGUAUAUCUC [G63A A64U] | 0.54
UAACAGGGGGCCACAGCAGAAGCGUUCACGUCGCAGCCCCUGUCAGAUUCUGGUGAAUCUGCACAUUCUGCUGUAUAUCUC [G63A A64C] | 0.42
UAACAGGGGGCCACAGCAGAAGCGUUCACGUCGCAGCCCCUGUCAGAUUCUGGUGAAUCUGCAGAUUCUGCUGUAUAUCUC [G63A A64G] | 0.6
UAACAGGGGGCCACAGCAGAAGCGUUCACGUCGCAGCCCCUGUCAGAUUCUGGUGAAUCUGAGAAUUCUGCCGUAUAUCUC [C62A U72C] | 0.24
UAACAGGGGGCCACAGCAGAAGCGUUCACGUCGCAGCCCCUGUCAGAUUCUGGUGAAUCUGAGAAUUCUGCGGUAUAUCUC [C62A U72G] | 0.19
UAACAGGGGGCCACAGCAGAAGCGUUCACGUCGCAGCCCCUGUCAGAUUCUGGUGAAUCUGAGAAUUCUGCAGUAUAUCUC [C62A U72A] | 0.17
UAACAGGGGGCCACAGCAGAAGCGUUCACGUCGCAGCCCCUGUCAGAUUCUGGUGAAUCUGAGAAUACUGCUGUAUAUCUC [C62A U67A] | 0.32
UAACAGGGGGCCACAGCAGAAGCGUUCACGUCGCAGCCCCUGUCAGAUUCUGGUGAAUCUGUGAAUUCUGAUGUAUAUCUC [C62U C71A] | 0.26
UAACAGGGGGCCACAGCAGAAGCGUUCACGUCGCAGCCCCUGUCAGAUUCUGGUGAAUCUGUGAAUUCUGUUGUAUAUCUC [C62U C71U] | 0.22
UAACAGGGGGCCACAGCAGAAGCGUUCACGUCGCAGCCCCUGUCAGAUUCUGGUGAAUCUGUGAAUUCUGCUGUAUAUGUC [C62U C79G] | 0.2
UAACAGGGGGCCACAGCAGAAGCGUUCACGUCGCAGCCCCUGUCAGAUUCUGGUGAAUCUGUGAAAUCUGCUGUAUAUCUC [C62U U66A] | 0.18
UAACAGGGGGCCACAGCAGAAGCGUUCACGUCGCAGCCCCUGUCAGAUUCUGGUGAAUCUGUGAACUCUGCUGUAUAUCUC [C62U U66C] | 0.26
UAACAGGGGGCCACAGCAGAAGCGUUCACGUCGCAGCCCCUGUCAGAUUCUGGUGAAUCUGGGCAUUCUGCUGUAUAUCUC [C62G A64C] | 0.19
UAACAGGGGGCCACAGCAGAAGCGUUCACGUCGCAGCCCCUGUCAGAUUCUGGUGAAUCUGGGGAUUCUGCUGUAUAUCUC [C62G A64G] | 0.22
UAACAGGGGGCCACAGCAGAAGCGUUCACGUCGCAGCCCCUGUCAGAUUCUGGUGAAUCUGGGUAUUCUGCUGUAUAUCUC [C62G A64U] | 0.32
UAACAGGGGGCCACAGCAGAAGCGUUCACGUCGCAGCCCCUGUCAGAUUCUGGUGAAUCUGGGAAUUCUGCUGUACAUCUC [C62G U76C] | 0.29
UAACAGGGGGCCACAGCAGAAGCGUUCACGUCGCAGCCCCUGUCAGAUUCUGGUGAAUCUGUGAAUUCUGCAGUAUAUCUC [C62U U72A] | 0.4

Variant | self-cleavage
UAACAGGGGGCCACAGCAGAAGCGUUCACGUCGCAGCCCCUGUCAGAUUCUGGUGAAUCUGUGAAUUCUGCGGUAUAUCUC [C62U U72G] | 0.29
UAACAGGGGGCCACAGCAGAAGCGUUCACGUCGCAGCCCCUGUCAGAUUCUGGUGAAUCUGUGAAUUCUGCCGUAUAUCUC [C62U U72C] | 0.29
UAACAGGGGGCCACAGCAGAAGCGUUCACGUCGCAGCCCCUGUCAGAUUCUGGUGAAUCUGUGAAUUUUGCUGUAUAUCUC [C62U C68U] | 0.21
UAACAGGGGGCCACAGCAGAAGCGUUCACGUCGCAGCCCCUGUCAGAUUCUGGUGAAUCUGGGAAUUCUGCCGUAUAUCUC [C62G U72C] | 0.26
UAACAGGGGGCCACAGCAGAAGCGUUCACGUCGCAGCCCCUGUCAGAUUCUGGUGAAUCUGGGAAUUCUGCAGUAUAUCUC [C62G U72A] | 0.27
UAACAGGGGGCCACAGCAGAAGCGUUCACGUCGCAGCCCCUGUCAGAUUCUGGUGAAUCUGUGAAUUCUGCUAUAUAUCUC [C62U G73A] | 0.16
UAACAGGGGGCCACAGCAGAAGCGUUCACGUCGCAGCCCCUGUCAGAUUCUGGUGAAUCUGUGAAUUCUGCUUUAUAUCUC [C62U G73U] | 0.21
UAACAGGGGGCCACAGCAGAAGCGUUCACGUCGCAGCCCCUGUCAGAUUCUGGUGAAUCUGAGAAAUCUGCUGUAUAUCUC [C62A U66A] | 0.48
UAACAGGGGGCCACAGCAGAAGCGUUCACGUCGCAGCCCCUGUCAGAUUCUGGUGAAUCUGAGAACUCUGCUGUAUAUCUC [C62A U66C] | 0.25
UAACAGGGGGCCACAGCAGAAGCGUUCACGUCGCAGCCCCUGUCAGAUUCUGGUGAAUCUGUGAAUUCUGCUGUAUGUCUC [C62U A77G] | 0.15
UAACAGGGGGCCACAGCAGAAGCGUUCACGUCGCAGCCCCUGUCAGAUUCUGGUGAAUCUGUGAAUUCUGCUGUAUUUCUC [C62U A77U] | 0.17
UAACAGGGGGCCACAGCAGAAGCGUUCACGUCGCAGCCCCUGUCAGAUUCUGGUGAAUCUGUGAAUUCUGCUGUAUCUCUC [C62U A77C] | 0.19
UAACAGGGGGCCACAGCAGAAGCGUUCACGUCGCAGCCCCUGUCAGAUUCUGGUGAAUCUGAGAAUUCCGCUGUAUAUCUC [C62A U69C] | 0.34
UAACAGGGGGCCACAGCAGAAGCGUUCACGUCGCAGCCCCUGUCAGAUUCUGGUGAAUCUGAGAAUUCGGCUGUAUAUCUC [C62A U69G] | 0.33
UAACAGGGGGCCACAGCAGAAGCGUUCACGUCGCAGCCCCUGUCAGAUUCUGGUGAAUCUGAGAAUUCAGCUGUAUAUCUC [C62A U69A] | 0.31
UAACAGGGGGCCACAGCAGAAGCGUUCACGUCGCAGCCCCUGUCAGAUUCUGGUGAAUCUGUGAAUUCUGCUGUCUAUCUC [C62U A75C] | 0.44
UAACAGGGGGCCACAGCAGAAGCGUUCACGUCGCAGCCCCUGUCAGAUUCUGGUGAAUCUGUGAAUUCUGCUGUGUAUCUC [C62U A75G] | 0.22
